The assay deals with LC3B-I (UniProt Q9GZQ8 1-120). Description: fluorescence polarisation; fluorescence anisotropy; peptide at 1 μM, LC3B-I or Pro-LC3B added from 0 to 50 μM; Kd by nonlinear curve fitting; three independent experiments. Particulars: both partners purified. For orientation: Fluorescence polarisation rises when a labelled molecule tumbles more slowly, as on binding a larger partner.

No end group written: not given here.

B1: BAG6 LIR1 peptide (residues 124-143) (peptide)
peptide: VHDRNANSYVMVGTFNLPSD
modifications: also: FITC label, position not given here
notes: BAG6, 20-aa peptide encompassing the LIR1 motif (132-135 YVMV), residues 124-143; it has the same name there; also called wild-type BAG6 LIR-1 peptide; source: synthetic peptide
As a reminder, the Kd is the constant that tells how readily two partners part at equilibrium. Low values mean a tighter complex, high ones a looser complex. B1 registered a Kd of 22.2 µM.

Values taken from PMC7674511, “The Chaperone BAG6 Regulates Cellular Homeostasis between Autophagy and Apoptosis by Holding LC3B” (iScience, 2020).
